We go through three molecules from publication PMC5489476, “A thermophilic cell-free cascade enzymatic reaction for acetoin synthesis from pyruvate” (Scientific Reports, 2017).

One data set has as its target T1, coAHASL2 (Caldicellulosiruptor owensensis, UniProt E4Q4G3).
T1 construct: gene Calow_0543; catalytic subunit alone, EC 2.2.1.6
T1 sequence (E4Q4G3 1-552): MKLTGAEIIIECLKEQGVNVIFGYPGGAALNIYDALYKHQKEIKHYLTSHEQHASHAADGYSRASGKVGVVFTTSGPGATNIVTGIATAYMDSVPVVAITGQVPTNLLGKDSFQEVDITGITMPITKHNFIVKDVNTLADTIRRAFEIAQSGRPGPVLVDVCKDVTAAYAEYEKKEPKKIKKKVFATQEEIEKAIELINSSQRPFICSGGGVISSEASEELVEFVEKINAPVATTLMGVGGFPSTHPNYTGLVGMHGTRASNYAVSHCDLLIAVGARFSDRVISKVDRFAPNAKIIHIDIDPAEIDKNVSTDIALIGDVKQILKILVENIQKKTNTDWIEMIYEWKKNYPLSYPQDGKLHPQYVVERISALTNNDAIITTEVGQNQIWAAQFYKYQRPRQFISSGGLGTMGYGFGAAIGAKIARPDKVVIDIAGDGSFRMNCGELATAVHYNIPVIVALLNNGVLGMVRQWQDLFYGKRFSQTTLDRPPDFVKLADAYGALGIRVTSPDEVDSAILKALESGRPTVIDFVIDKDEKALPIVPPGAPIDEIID
Put plainly: colorimetric acetoin assay; activity with […] FAD. Type of data set: biochemical. As to conditions: pyruvate, ThDP, Mg2+; 65 °C, Tris pH 6.5.

A further data set addresses T2, coAHASL1 (Caldicellulosiruptor owensensis, UniProt E4Q3I4).
T2 construct: gene Calow_0356; catalytic subunit alone, EC 2.2.1.6
T2 sequence (E4Q3I4 1-536): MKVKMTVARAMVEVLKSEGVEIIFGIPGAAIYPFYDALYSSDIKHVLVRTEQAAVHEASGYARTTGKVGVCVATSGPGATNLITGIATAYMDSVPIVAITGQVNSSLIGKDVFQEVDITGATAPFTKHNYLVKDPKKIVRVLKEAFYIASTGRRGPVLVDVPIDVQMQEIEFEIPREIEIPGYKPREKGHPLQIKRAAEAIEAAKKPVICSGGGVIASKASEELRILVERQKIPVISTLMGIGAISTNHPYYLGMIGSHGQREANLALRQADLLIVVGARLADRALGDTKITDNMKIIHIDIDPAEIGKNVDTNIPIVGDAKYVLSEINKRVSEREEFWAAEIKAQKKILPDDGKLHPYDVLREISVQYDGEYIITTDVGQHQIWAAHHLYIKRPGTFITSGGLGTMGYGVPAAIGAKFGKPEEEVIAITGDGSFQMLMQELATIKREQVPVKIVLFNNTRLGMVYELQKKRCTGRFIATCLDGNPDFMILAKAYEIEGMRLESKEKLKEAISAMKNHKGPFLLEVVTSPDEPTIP
Description: colorimetric acetoin assay; activity with […] FAD. Type of data set: biochemical. As to conditions: pyruvate, ThDP, Mg2+; 65 °C, Tris pH 6.5.

Substrate in the data set “purified protein”: CC(=O)C(=O)O
Description: purified protein. Type of data set: biochemical, Caldicellulosiruptor owensensis. As to conditions: ThDP, FAD, Mg2+, catalytic subunit alone.

Setting [1] is: 70 °C, pH 6.5 (citrate-phosphate).

What is called Km is the substrate concentration at which the rate is half of its maximum. Broadly, the Vmax is the rate approached at saturating substrate.

`Cc1cc2nc3c(=O)[nH]c(=O)nc-3n(C[C@H](O)[C@H](O)[C@H](O)COP(=O)(O)OP(=O)(O)OC[C@H]3O[C@@H](n4cnc5c(N)ncnc54)[C@H](O)[C@@H]3O)c2cc1C` [FAD]: the activity enhancement entry is “concentration-dependent enhancements of both coAHASL1 and coAHASL2 were observed upon the addition of FAD” at coAHASL2; “concentration-dependent enhancements of both coAHASL1 and coAHASL2 were observed upon the addition of FAD” at coAHASL1.

B1: coAHASL2 (Caldicellulosiruptor owensensis OL) (protein)
chain: MKLTGAEIIIECLKEQGVNVIFGYPGGAALNIYDALYKHQKEIKHYLTSHEQHASHAADGYSRASGKVGVVFTTSGPGATNIVTGIATAYMDSVPVVAITGQVPTNLLGKDSFQEVDITGITMPITKHNFIVKDVNTLADTIRRAFEIAQSGRPGPVLVDVCKDVTAAYAEYEKKEPKKIKKKVFATQEEIEKAIELINSSQRPFICSGGGVISSEASEELVEFVEKINAPVATTLMGVGGFPSTHPNYTGLVGMHGTRASNYAVSHCDLLIAVGARFSDRVISKVDRFAPNAKIIHIDIDPAEIDKNVSTDIALIGDVKQILKILVENIQKKTNTDWIEMIYEWKKNYPLSYPQDGKLHPQYVVERISALTNNDAIITTEVGQNQIWAAQFYKYQRPRQFISSGGLGTMGYGFGAAIGAKIARPDKVVIDIAGDGSFRMNCGELATAVHYNIPVIVALLNNGVLGMVRQWQDLFYGKRFSQTTLDRPPDFVKLADAYGALGIRVTSPDEVDSAILKALESGRPTVIDFVIDKDEKALPIVPPGAPIDEIID
notes: catalytic subunit alone, EC 2.2.1.6
Regarding B1, in “purified protein” (setting [1]), the Michaelis constant (Km) is reported as 53.78 ± 2.68 mM and the Vmax turned out to be 0.7 µmol/min/mg.

B2: coAHASL1 (Caldicellulosiruptor owensensis OL) (protein)
chain: MKVKMTVARAMVEVLKSEGVEIIFGIPGAAIYPFYDALYSSDIKHVLVRTEQAAVHEASGYARTTGKVGVCVATSGPGATNLITGIATAYMDSVPIVAITGQVNSSLIGKDVFQEVDITGATAPFTKHNYLVKDPKKIVRVLKEAFYIASTGRRGPVLVDVPIDVQMQEIEFEIPREIEIPGYKPREKGHPLQIKRAAEAIEAAKKPVICSGGGVIASKASEELRILVERQKIPVISTLMGIGAISTNHPYYLGMIGSHGQREANLALRQADLLIVVGARLADRALGDTKITDNMKIIHIDIDPAEIGKNVDTNIPIVGDAKYVLSEINKRVSEREEFWAAEIKAQKKILPDDGKLHPYDVLREISVQYDGEYIITTDVGQHQIWAAHHLYIKRPGTFITSGGLGTMGYGVPAAIGAKFGKPEEEVIAITGDGSFQMLMQELATIKREQVPVKIVLFNNTRLGMVYELQKKRCTGRFIATCLDGNPDFMILAKAYEIEGMRLESKEKLKEAISAMKNHKGPFLLEVVTSPDEPTIP
notes: as for B1
With B2, in the data set “purified protein” (65 °C, pH 6.5 (Tris)), the Km was 71.83 ± 4.63 mM and the Vmax stood at 3.7 µmol/min/mg.
